According to patent US20210198369A1 (DRAGONFLY THERAPEUTICS, published 2021):
Positions count from the first letter of the chain named. Values joined by “and” are separate entries in the source; they are usually repeats but may differ in a detail not shown here. Equal values may be shown once. Values belong to the binder of their own block, whether it stands above or below them.

Tests used:
[1] = biological target: T1, HER2 (ErbB2) expressed on human cells (SkBr-3, NCI-H661, 786-O cancer cells; human cardiomyocytes) (human, UniProt P04626 23-1255); assay: cell-based or functional assay
[2] = biological target: T2, fusion protein of human NKG2D and murine Fc (human, UniProt P26718 78-216); assay: SPR at 37 C, steady state affinity fit, average of two independent experiments
T2 construct: also called mFc-hNKG2D; not shown: murine Fc
T2 sequence (looked up): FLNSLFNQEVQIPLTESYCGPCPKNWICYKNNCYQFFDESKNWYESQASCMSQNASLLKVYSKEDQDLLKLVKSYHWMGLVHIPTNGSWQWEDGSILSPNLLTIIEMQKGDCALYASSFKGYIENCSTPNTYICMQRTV
Description: (§1) Steady state affinity fit was utilized to obtain the equilibrium affinity data.

[3] = biological target: T2, fusion protein of human NKG2D and …; assay: SPR at 37 C, mFc-hNKG2D captured, TriNKET as analyte, steady state affinity fit
Description: as §1

[4] = biological target: T2, fusion protein of human NKG2D and …; assay: SPR at 37 C, mFc-hNKG2D captured, TriNKET as analyte, steady state affinity fit; reference TriNKET A
Description: as §1

[5] = biological target: T2, fusion protein of human NKG2D and …; assay: SPR at 37 C, steady state affinity fit, average of three independent experiments
Description: as §1

[6] = biological target: T1, HER2 (ErbB2) expressed on human cells …; assay: flow cytometry on SkBr-3 cells, anti-human IgG secondary, % of maximum MFI
Experimental: (§2) All three cell lines were used to assess their binding affinity to TriNKET. TriNKETs were diluted in a series of concentrations, and were incubated with the respective cells.

[7] = biological target: T1, HER2 (ErbB2) expressed on human cells …; assay: flow cytometry on H661 cells, anti-human IgG secondary, fold over background (control TriNKET)
Experimental: (§3) TriNKETs were diluted to 3.8e-4 to 100 μg/mL, and the dilutions were used as primary antibody stain. Binding of the TriNKET was detected using a fluorophore-conjugated anti-human IgG secondary antibody. Cells were analyzed by flow cytometry. Binding fluorescence intensity (MFI) to cells expressing HER2 was normalized to cells stained with a control (non-specific) TriNKET to obtain fold over background (FOB) values.

[8] = biological target: T1, HER2 (ErbB2) expressed on human cells …; assay: flow cytometry on SKBR3 cells, anti-human IgG secondary, fold over background (control TriNKET)
Experimental: as §3

[9] = biological target: T1, HER2 (ErbB2) expressed on human cells …; assay: flow cytometry on SkBr-3 cells, anti-human IgG secondary, fold over background (secondary only)
Experimental: as §2

[10] = biological target: T1, HER2 (ErbB2) expressed on human cells …; assay: flow cytometry on human cardiomyocytes, anti-human IgG secondary, fold over background (control TriNKET)
Experimental: as §3

EC50 (nM), % specific lysis of SKBR-3 target cells by KHYG-1-CD16V cells (DELFIA) [1]: 0.65 nM
Kd [2]: 481 nM
Kd [3]: 509 nM and 454 nM
fold reduced affinity compared to TriNKET A [4]: < 2 fold
B1: TriNKET A* (mutant form of TriNKET A having a substitution of Ile for the Met at position 102) (bispecific antibody, human IgG1)
heavy: EVQLVESGGGLVKPGGSLRLSCAASGFTFSSYSMNWVRQAPGKGLEWVSSISSSSSYIYYADSVKGRFTISRDNAKNSLYLQMNSLRAEDTAVYYCARGAPIGAAAGWFDPWGQGTLVTVSSASTKGPSVFPLAPSSKSTSGGTAALGCLVKDYFPEPVTVSWNSGALTSGVHTFPAVLQSSGLYSLSSVVTVPSSSLGTQTYICNVNHKPSNTKVDKKVEPKSCDKTHTCPPCPAPELLGGPSVFLFPPKPKDTLMISRTPEVTCVVVDVSHEDPEVKFNWYVDGVEVHNAKTKPREEQYNSTYRVVSVLTVLHQDWLNGKEYKCKVSNKALPAPIEKTISKAKGQPREPQVCTLPPSRDELTENQVSLTCLVKGFYPSDIAVEWESNGQPENNYKTTPPVLDSDGSFFLYSWLTVDKSRWQQGNVFSCSVMHEALHNHYTQKSLSLSPG
scFv: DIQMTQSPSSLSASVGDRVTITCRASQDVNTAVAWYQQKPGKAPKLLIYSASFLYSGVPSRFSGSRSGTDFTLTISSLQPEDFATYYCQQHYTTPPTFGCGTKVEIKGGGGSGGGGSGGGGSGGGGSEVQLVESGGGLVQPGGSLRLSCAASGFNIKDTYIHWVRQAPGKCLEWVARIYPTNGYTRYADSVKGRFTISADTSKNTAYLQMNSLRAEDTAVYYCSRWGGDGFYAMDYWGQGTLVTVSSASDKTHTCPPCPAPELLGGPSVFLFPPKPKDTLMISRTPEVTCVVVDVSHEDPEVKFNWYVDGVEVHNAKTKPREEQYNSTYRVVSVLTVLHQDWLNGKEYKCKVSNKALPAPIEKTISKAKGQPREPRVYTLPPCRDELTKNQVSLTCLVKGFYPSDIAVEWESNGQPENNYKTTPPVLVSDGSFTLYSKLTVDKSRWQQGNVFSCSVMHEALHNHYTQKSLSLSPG
light: DIQMTQSPSSVSASVGDRVTITCRASQGISSWLAWYQQKPGKAPKLLIYAASSLQSGVPSRFSGSGSGTDFTLTISSLQPEDFATYYCQQGVSFPRTFGGGTKVEIKRTVAAPSPPSDEQLKSGTASVVCLLNNFYPREAKVQWKVDNALQSGNSQESVTEQDSKDSTYSLSSTLTLSKADYEKHKVYACEVTHQGLSSPVTKSFNRGEC
notes: also called M102 variant

EC50 (nM), % specific lysis of SKBR-3 target cells by KHYG-1-CD16V cells (DELFIA) [1]: 0.39 nM
Kd [3]: 370 nM and 328 nM and 313 nM
Kd [5]: 337 nM
EC50 (read off the curve) [6]: ~10 nM
EC50 (read off the curve) [7]: ~0.3 µg/mL
EC50 (read off the curve) [8]: ~0.3 µg/mL
EC50 (read off the curve) [9]: ~10 nM
EC50 (read off the curve) [10]: ~0.4 µg/mL
B2: A49-F3'-TriNKET-Trastuzumab (bispecific antibody, human IgG1)
heavy: B1 heavy with I102M
scFv: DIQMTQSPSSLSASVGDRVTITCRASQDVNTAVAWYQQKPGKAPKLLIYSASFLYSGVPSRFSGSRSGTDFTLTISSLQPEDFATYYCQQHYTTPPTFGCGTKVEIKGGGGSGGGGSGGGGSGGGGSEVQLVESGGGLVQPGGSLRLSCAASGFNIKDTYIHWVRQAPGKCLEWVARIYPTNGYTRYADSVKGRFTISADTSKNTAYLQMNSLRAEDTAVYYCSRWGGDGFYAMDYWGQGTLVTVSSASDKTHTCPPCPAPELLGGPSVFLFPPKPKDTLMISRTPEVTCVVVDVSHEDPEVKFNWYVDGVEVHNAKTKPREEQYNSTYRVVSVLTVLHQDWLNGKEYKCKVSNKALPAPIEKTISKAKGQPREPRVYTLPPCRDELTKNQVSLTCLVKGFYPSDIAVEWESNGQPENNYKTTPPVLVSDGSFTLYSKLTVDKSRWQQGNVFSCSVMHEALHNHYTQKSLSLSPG
light: B1 light
notes: also called TriNKET A; HER2-F3'-TriNKET-A49
